Here are results for one substance from publication PMC4816226.

In this experiment the target is biotinylated bovine serum albumin (bovine) (UniProt P02769). Put plainly: broad-band Mach-Zehnder interferometry (label-free, TE and TM phase shifts); multiplexed chip: mouse IgG (WGs 1, 4, 7, 10), biotinylated-BSA (WGs 2, 5, 8) and BSA blanks spotted on the sensing arms, blocked with BSA; 1 nM streptavidin in assay buffer (50 mM phosphate, pH 7.4, 10 g/L BSA) for 20 min, then 10 nM anti-mouse IgG antibody for 20 min; 20 ul/min.
Chain of UniProt P02769 (P02769 25-607): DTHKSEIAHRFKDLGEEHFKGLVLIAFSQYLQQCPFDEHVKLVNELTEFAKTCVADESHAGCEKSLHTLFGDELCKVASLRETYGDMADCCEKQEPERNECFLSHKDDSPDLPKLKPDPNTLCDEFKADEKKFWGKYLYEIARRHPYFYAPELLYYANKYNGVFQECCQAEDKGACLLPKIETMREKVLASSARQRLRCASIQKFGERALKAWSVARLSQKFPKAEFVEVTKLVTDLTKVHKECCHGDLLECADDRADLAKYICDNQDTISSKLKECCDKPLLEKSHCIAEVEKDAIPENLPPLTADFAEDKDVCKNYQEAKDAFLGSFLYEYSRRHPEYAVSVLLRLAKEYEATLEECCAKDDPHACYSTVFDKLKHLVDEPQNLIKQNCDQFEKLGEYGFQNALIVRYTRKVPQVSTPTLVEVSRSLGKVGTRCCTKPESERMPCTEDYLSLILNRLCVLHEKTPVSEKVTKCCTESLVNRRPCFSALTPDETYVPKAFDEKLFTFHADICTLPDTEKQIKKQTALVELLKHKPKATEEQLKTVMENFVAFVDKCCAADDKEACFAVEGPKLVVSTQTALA

With “Immunopure Streptavidin (from UniProt P22629 25-183) (natural protein)”, the TE phase shift after 20 min with 1 nM streptavidin (interferometer 2) turned out to be 4.48 radians, the TE phase shift after 20 min with 1 nM streptavidin (interferometer 5) is 4.56 radians, the TE phase shift after 20 min with 1 nM streptavidin (interferometer 8) was 4.25 radians and the TM phase shift after 20 min with 1 nM streptavidin (interferometer 2) came to 6.02 radians. Also, the TM phase shift after 20 min with 1 nM streptavidin (interferometer 5) worked out at 6.87 radians and the TM phase shift after 20 min with 1 nM streptavidin (interferometer 8) is 5.73 radians.
